The record followed here is patent US5593882.

The target in assay [1] is P-Selectin ligand on HL60 cells and human neutrophils (human). Nature of the assay: flow cytometry, staining of HL60 cells. For orientation: A flow cytometer gives signals particle by particle.
Assay [2] deals with P-Selectin-IgG REKDV mutant (human) (UniProt P16109). Nature of the assay: capture ELISA.
For assay [3], the target named is E-Selectin-IgG chimera (wild type) (human) (UniProt P16581). Nature of the assay: capture ELISA, mAb coated. On the technique in general: An ELISA detects its analyte on a solid surface through an enzyme-linked reagent.
Assay [4] deals with P-Selectin-IgG chimera (human) (UniProt P16109). Nature of the assay: capture ELISA, mAb coated.
Another assay concerns the target PE-1 chimera (human) (UniProt P16581). Nature of the assay: capture ELISA, mAb coated.

As to “P-Selectin-IgG chimera (from UniProt P16109) (Fc fusion)”, in assay [1], the % cells positive amounted to 97% and the MFI is 416 MFI.
In the case of mAb AC 1.2 (antibody), the percent of control P-Selectin-IgG binding in assay [2] was 70%. The O.D. 450 in assay [3] was 0 O.D. 450; in assay [4], 2.8 O.D. 450; with PE-1 chimera (human), 0.1 O.D. 450.
The matching figures for mAb AK-6 (CLB-thromb/6) (antibody): 70%, 0 O.D. 450, 1.3 O.D. 450 and 1.7 O.D. 450.
